Experimental data reported in patent US20040053357A1 (ICAGEN, published 2004).

Biological target: T1, Kv2.2 (UniProt Q92953 1-911, limits assumed)
T1 sequence (looked up): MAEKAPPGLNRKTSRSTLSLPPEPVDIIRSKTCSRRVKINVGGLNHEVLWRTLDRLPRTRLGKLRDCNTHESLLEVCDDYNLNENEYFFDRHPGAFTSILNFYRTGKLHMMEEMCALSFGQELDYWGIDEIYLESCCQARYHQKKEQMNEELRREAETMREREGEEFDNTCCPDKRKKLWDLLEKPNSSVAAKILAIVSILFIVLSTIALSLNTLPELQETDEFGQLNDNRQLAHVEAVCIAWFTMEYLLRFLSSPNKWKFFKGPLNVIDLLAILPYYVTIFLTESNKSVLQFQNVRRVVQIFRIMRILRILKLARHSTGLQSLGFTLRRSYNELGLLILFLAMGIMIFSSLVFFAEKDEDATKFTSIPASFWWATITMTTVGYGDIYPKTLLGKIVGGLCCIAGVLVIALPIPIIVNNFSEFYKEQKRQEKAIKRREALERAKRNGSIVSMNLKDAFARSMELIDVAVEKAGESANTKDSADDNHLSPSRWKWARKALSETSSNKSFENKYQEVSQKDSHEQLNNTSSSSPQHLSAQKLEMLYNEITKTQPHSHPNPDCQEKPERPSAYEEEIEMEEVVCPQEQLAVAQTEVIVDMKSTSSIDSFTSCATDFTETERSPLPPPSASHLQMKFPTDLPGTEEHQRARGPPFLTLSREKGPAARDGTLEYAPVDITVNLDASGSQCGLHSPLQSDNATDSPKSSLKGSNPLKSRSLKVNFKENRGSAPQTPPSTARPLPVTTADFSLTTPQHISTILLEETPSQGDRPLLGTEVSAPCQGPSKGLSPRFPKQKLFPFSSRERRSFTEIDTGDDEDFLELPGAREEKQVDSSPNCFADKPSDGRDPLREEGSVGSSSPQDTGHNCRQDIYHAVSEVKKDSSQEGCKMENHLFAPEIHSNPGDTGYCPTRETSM
Assay: cell-based or functional assay

rate of activation at 0 mV: ~2 fold
B1: human Kv10.1 (other)
chain: MLKQSERRRSWSYRPWNTTENEGSQHRRSICSLGARSGSQASIHGWTEGNYNYYIEEDEDGEEEDQWKDDLAEEDQQAGEVTTAKPEGPSDPPALLSTLNVNVGGHSYQLDYCELAGFPKTRLGRLATSTSRSRQLSLCDDYEEQTDEYFFDRDPAVFQLVYNFYLSGVLLVLDGLCPRRFLEELGYWGVRLKYTPRCCRICFEERRDELSERLKIQHELRAQAQVEEAEELFRDMRFYGPQRRRLWNLMEKPFSSVAAKAIGVASSTFVLVSVVALALNTVEEMQQHSGQGEGGPDLRPILEHVEMLCMGFFTLEYLLRLASTPDLRRFARSALNLVDLVAILPLYLQLLLECFTGEGHQRGQTVGSVGKVGQVLRVMRLMRIFRILKLARHSTGLRAFGFTLRQCYQQVGCLLLFIAMGIFTFSAAVYSVEHDVPSTNFTTIPHSWWWAAVSISTVGYGDMYPETHLGRFFAFLCIAFGIILNGMPISILYNKFSDYYSKLKAYEYTTIRRERGEVNFMQRARKKIAECLLGSNPQLTPRQEN
